These results are taken from patent publication US20260285993 (published 2026).

Changes are numbered by the printed parent chain.

This assay addresses T1, cynomolgus PRLR ECD (cynomolgus monkey).
T1 chain: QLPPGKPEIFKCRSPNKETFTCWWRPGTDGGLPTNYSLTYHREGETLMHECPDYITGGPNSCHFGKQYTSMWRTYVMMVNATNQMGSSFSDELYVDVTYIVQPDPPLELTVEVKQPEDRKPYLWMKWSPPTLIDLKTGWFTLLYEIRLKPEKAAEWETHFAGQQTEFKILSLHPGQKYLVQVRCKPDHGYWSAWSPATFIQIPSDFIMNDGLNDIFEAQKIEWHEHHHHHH
As to the kind of experiment: ELISA. On the technique in general: In an ELISA, binding on a coated surface is turned into a signal by an enzyme label.

B1: HP-PR01B01 (antibody, V domains shown)
VH: EVHLVESGPDLVKPSQSLSLTCTVTGYSITSGYNWHWIRQFPGNKLEWMGYIHYSGSTKYDPSLKSRISFTRDTSRNQFFLQLNSVTTEDRATYYCARSEAGGYSWFAYWGQGTLVTVSA
VL: DIVMTQSPAIMSASPGEKVTMACSASSSVNYMHWYQQKSGTSPKRWIYDTSKLASGVPARFSGSGSGTSYSLTISSMEAEDAATYYCQQWSSNPLTFGAGTKLELK
In the case of B1, the binding result is listed as “no binding”.

B2: H-PR-B06 (antibody, V domains shown)
VH: DVKLVESGGGLVKPGGSLKLACAASGFTFSSYTMSWVRQTPEKRLEWVATISSGGSYTYYPDSVKGRFTISRDNAKNTLYLQLSSLKSEDTAMYYCTRDRYYSTTPDWYFDVWGAGTTVTVSS
VL: DIVLTQSPATLSVTPGDSVSLSCRATQIIFNNLHWYQQKSHESPRLLITYTSQSISGIPSRFSGSGSGTDFTLTINSVETEDFGMYFCQQSNTWPRTFGGGTKLEIK
As to B2, the binding result is “no binding”.

B3: HP-PR02H02 (antibody, V domains shown)
VH: B2 VH with D1E, K3M, V119L
VL: B2 VL with L4I
For B3, the binding result is given as “no binding”.
